Measured values published in paper PMC12350670 (2025).

Assays:
[1] = molecular target: NGS2405-Fc (anti-FAP VNAR NGS2405 fused to the Fc of human IgG1) (nurse shark (Ginglyomostoma cirratum)); assay: BLI
[2] = molecular target: H4-Fc (anti-FAP VNAR H4 fused to the Fc of human IgG1) (nurse shark (Ginglyomostoma cirratum)); assay: BLI

Kd [1]: 79.5 nM | Kd [2]: 14.2 nM
B1: recombinant mouse FAP (mFAP) (enzyme)
chain: MKTWLKTVFGVTTLAALALVVICIVLRPSRVYKPEGNTKRALTLKDILNGTFSYKTYFPNWISEQEYLHQSEDDNIVFYNIETRESYIILSNSTMKSVNATDYGLSPDRQFVYLESDYSKLWRYSYTATYYIYDLQNGEFVRGYELPRPIQYLCWSPVGSKLAYVYQNNIYLKQRPGDPPFQITYTGRENRIFNGIPDWVYEEEMLATKYALWWSPDGKFLAYVEFNDSDIPIIAYSYYGDGQYPRTINIPYPKAGAKNPVVRVFIVDTTYPHHVGPMEVPVPEMIASSDYYFSWLTWVSSERVCLQWLKRVQNVSVLSICDFREDWHAWECPKNQEHVEESRTGWAGGFFVSTPAFSQDATSYYKIFSDKDGYKHIHYIKDTVENAIQITSGKWEAIYIFRVTQDSLFYSSNEFEGYPGRRNIYRISIGNSPPSKKCVTCHLRKERCQYYTASFSYKAKYYALVCYGPGLPISTLHDGRTDQEIQVLEENKELENSLRNIQLPKVEIKKLKDGGLTFWYKMILPPQFDRSKKYPLLIQVYGGPCSQSVKSVFAVNWITYLASKEGIVIALVDGRGTAFQGDKFLHAVYRKLGVYEVEDQLTAVRKFIEMGFIDEERIAIWGWSYGGYVSSLALASGTGLFKCGIAVAPVSSWEYYASIYSERFMGLPTKDDNLEHYKNSTVMARAEYFRNVDYLLIHGTADDNVHFQNSAQIAKALVNAQVDFQAMWYSDQNHGISSGRSQNHLYTHMTHFLKQCFSLSD
modifications: biotin (EZ-link NHS-PEG4-biotin)
